Reference: article PMC9996972

Biological target: αVβ3 integrin (rat (endogenous in primary astrocytes)) (UniProt Q8R2H2)
UniProt Q8R2H2, sequence (Q8R2H2 whole entry, looked up): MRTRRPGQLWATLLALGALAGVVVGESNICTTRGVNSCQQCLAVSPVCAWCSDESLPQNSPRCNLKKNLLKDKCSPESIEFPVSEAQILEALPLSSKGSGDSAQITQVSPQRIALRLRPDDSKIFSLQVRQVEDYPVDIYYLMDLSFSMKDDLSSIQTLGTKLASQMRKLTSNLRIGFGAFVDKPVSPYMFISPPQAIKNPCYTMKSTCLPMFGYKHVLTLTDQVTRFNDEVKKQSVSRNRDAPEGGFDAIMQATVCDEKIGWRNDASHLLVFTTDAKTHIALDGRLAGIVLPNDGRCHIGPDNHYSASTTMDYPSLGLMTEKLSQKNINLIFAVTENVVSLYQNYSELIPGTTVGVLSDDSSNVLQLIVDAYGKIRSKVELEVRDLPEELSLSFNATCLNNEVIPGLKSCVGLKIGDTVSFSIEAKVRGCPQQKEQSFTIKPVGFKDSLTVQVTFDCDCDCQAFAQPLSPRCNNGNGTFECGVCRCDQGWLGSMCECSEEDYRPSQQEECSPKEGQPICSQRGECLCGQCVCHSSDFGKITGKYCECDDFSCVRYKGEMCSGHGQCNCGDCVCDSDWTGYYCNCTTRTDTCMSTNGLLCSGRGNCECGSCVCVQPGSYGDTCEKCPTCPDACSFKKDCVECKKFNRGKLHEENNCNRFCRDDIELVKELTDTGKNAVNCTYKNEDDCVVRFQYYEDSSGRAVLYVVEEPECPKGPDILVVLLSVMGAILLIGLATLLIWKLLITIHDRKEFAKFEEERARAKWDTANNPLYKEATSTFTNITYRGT

B1: Thy-1-Fc fusion protein (Fc fusion)
chain: QKVTSLTACLVNQNLRLDCRHENNTKDNSIQHEFSLTREKRKHVLSGTLGIPEHTYRSRVTLSNQPYIKVLTLANFTTKDEGDYFCELQVSGANPMSSNKSISVYRDKLVKC
- wound closure (migration) of primary astrocytes pretreated with Hp OMVs (2.5 µg/ml, 12 h), then stimulated with Thy-1-Fc/Protein-A for 24 h: 25%
- wound closure (migration) of primary astrocytes pretreated with TNF (10 ng/ml, 48 h), then stimulated with Thy-1-Fc/Protein-A for 24 h: 10%
